Source: the supplement of paper PMC12042874
± gives the uncertainty stated by the source.

Assay: amyloid nucleation score (Sup35N fusion, yeast selection) (log enrichment); library NNK2; higher = more nucleation; inactive = no reads after selection
Method in brief: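 Output and input plasmid inserts were sequenced by Illumina after psi-negative yeast carrying Sup35N fused to peptides of 20 random codons had been induced 24 hours with 100 μM copper sulfate and grown 7 days at 30°C on medium lacking adenine and uracil. The nucleation score is the DiMSum log enrichment of output over input reads, centred on the mode score of non-aggregating sequences. Sequences with under 100 input reads were excluded.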

| Substance | amyloid nucleation score |
| --- | --- |
| CIMPVCVYDCLPLGRGIYWR | 0.745 ± 0.22 |
| CIQTSSREVSFRSIATDGST | 4.27 ± 0.047 |
| CISVPMIFDFTIWA | 6.64 ± 0.071 |
| CITVFAVINMQSAAVSCKQV | 6.72 ± 0.07 |
| CIVCFVFMLKRALLLHFCIA | -0.81 ± 1 |
| CIVSVNERRVVFGAVNTEFR | 4.79 ± 0.058 |
| CKFWYLARWWIFLWSPRYK | -0.153 ± 1.1 |
| CKLMMGVFVLTVNTCGDVSS | 5.33 ± 0.054 |
| CKLTRGSPMSYSEVR | -0.188 ± 0.29 |
| CKRQYHYLIWRMMEMSPGVL | 5.07 ± 0.058 |
| CKRSTH | -0.461 ± 0.49 |
| CKTHPKKNSGFWRKLKGCLG | 3.17 ± 0.15 |
| CKVHVQVNTESYTGIVMTYY | 4.65 ± 0.039 |
| CLFSILLVMIPASFYTAMWL | -0.588 ± 1.1 |
| CLGKSRYCISDWKFLSLWPN | -0.932 ± 0.55 |
| CLGNVCNSFNWLDVRACVWR | 1.52 ± 0.23 |
| CLIDFWKRDFKSAVDSKGTA | 0.125 ± 0.65 |
| CLKGKYESYNADVNAHYSLA | 0.13 ± 0.45 |
| CLLIGLAMGMVCSLPLGRIL | 0.123 ± 1 |
| CLLVSEQRSRRHRRGALCIG | 0.872 ± 0.32 |
| CLNQSLRNTSWKHMAEPKKR | 3.82 ± 0.12 |

| Substance | amyloid nucleation score |
| --- | --- |
| CLPCCGAFNKCANRYQVSEM | -0.249 ± 0.39 |
| CLRILGDISSFRGMRHTTLH | 0.042 ± 1.1 |
| CLSFIILMWLDRNVGMVQI | -0.579 ± 0.49 |
| CLSNL | -0.864 ± 0.48 |
| CLTTRTSGHNGYQRHDLI | inactive |
| CLVKCAMPILVINICAG | 7.82 ± 0.061 |
| CMGNSYFMFNSYANFKNNWA | 5.54 ± 0.093 |
| CMISTDLKVTRALSTHKNCI | 0.02 ± 0.56 |
| CMLASSFMVVRSRLLSSRAM | 1.14 ± 0.32 |
| CMNTISVLSECASTRQTC | -0.068 ± 0.31 |
| CMPMISRVLGCDNSYYMSSA | 0.029 ± 0.4 |
| CMRGLVKAGMIMTVFDRLSY | -1.22 ± 1.1 |
| CMTSKVLRLDYRRMMVNIDC | -0.58 ± 0.42 |
| CMTTYTNLIHIPIQVSTPKR | 7.51 ± 0.043 |
| CMVIRSW | -0.064 ± 0.34 |
| CNDGMTTSDYWWCSARLDPY | 0.345 ± 0.2 |
| CNFKINRAHNELPLDDLRNF | inactive |
| CNFVRSYDCHQVKLSI | -1.18 ± 1.1 |
| CNILH | 1.36 ± 0.3 |
| CNIVRSYCLL | -0.937 ± 0.5 |
| CNKESFSMI | -0.791 ± 0.55 |

| Substance | amyloid nucleation score |
| --- | --- |
| CNLCSDP | inactive |
| CNLSSCGHSFINLSYEDLCQ | inactive |
| CPDISGVSRHRAKRQKNWLY | inactive |
| CPMPITRSAVFACTITCSVA | 5.99 ± 0.079 |
| CPRLCLMLLPFKTCMIGTRE | 0.57 ± 0.81 |
| CPSFMNSFDASRNIWIVPSG | 3.28 ± 0.058 |
| CPSWFLSGDKCFYRGESSEN | -0.184 ± 0.63 |
| CPTFKIKRDMSLTHRLFNIY | -1.64 ± 0.54 |
| CQSAASVL | -0.148 ± 0.31 |
| CQSRY | -0.373 ± 1.1 |
| CRASG | 0.409 ± 0.25 |
| CRLLCVIGLYVDNLGPPLAR | -0.044 ± 0.35 |
| CRLVEAEYSSRKRLQVSLWA | 0.102 ± 0.79 |
| CRNQMQGWWYVWMVGVCRGS | inactive |
| CRQISGNTNVRLGASSMRII | -0.526 ± 0.55 |
| CRRGDLKDDEIYAMHLHRVS | -1.12 ± 0.78 |
| CRTLSGCYQDCGAVNGVLRV | 1.22 ± 0.3 |
| CRVLGQRRGASTNVSVHIVE | -0.097 ± 1.1 |
| CRYEIKLCYDLMQNPLFTRS | -0.522 ± 0.41 |
| CRYRLYYRCEVLEYLSDFTW | -0.492 ± 0.56 |
| CSAVAALLPILGMELIGTSI | -0.41 ± 0.55 |

| Substance | amyloid nucleation score |
| --- | --- |
| CSEVLRTFGKARHTEAR | 0.501 ± 0.2 |
| CSNLSV | 0.167 ± 0.28 |
| CSRIHIV | -0.255 ± 1.1 |
| CSTLVRIR | 0.723 ± 0.46 |
| CSTVLRGCVLGQYLYGYSSG | -0.258 ± 0.41 |
| CSVCYFPEGNLFNGE | inactive |
| CSWGCNDFRSCLALVMDCHA | 1.02 ± 0.61 |
| CSYFMGLIVILRVKCRYMLK | -1.18 ± 0.32 |
| CTAYNITYMTATSRGMSC | inactive |
| CTCKRLVLRVVVEWA | 1.82 ± 0.12 |
| CTCNLWYTLMCAFHASRLVH | 0.327 ± 0.34 |
| CTFTRLRSSAGSGIRQTPRL | 0.048 ± 0.79 |
| CTMYLALRGVW | 4.56 ± 0.056 |
| CTRMRPPYLEHQSCDRLSSR | 0.241 ± 0.54 |
| CTSCERSLAKRLQGWHIF | -1.09 ± 0.63 |
| CTVTK | 1.45 ± 0.11 |
| CTYVYESRHQGIGVLASLSN | -0.784 ± 0.76 |
| CVAVNLCVAALV | -0.049 ± 0.76 |
| CVGSLQLHGVSRRCIRCWGR | 1.15 ± 0.4 |
| CVLQNWYSTSTPKSWLRGNV | 0.678 ± 0.41 |
| CVNSLALGRVSIVGISSGWW | 0.284 ± 0.51 |
